Several values for one entry are separate records, joined by “and”; a condition that tells them apart may be missing. Equal entries are not always repeated.
B1: Recombinant IL-23 protein (unlabeled) (ligand)
chain 1: RAVPGGSSPAWTQCQQLSQKLCTLAWSAHPLVGHMDLREEGDEETTNDVPHIQCGDGCDPQGLRDNSQFCLQRIHQGLIFYEKLLGSDIFTGEPSLLPDSPVGQLHASLLGLSQLLQPEGHHWETQQIPSLSPSQPWQRLLLRFKILRSLQAFVAVAARVFAHGAATLSP
chain 2: IWELKKDVYVVELDWYPDAPGEMVVLTCDTPEEDGITWTLDQSSEVLGSGKTLTIQVKEFGDAGQYTCHKGGEVLSHSLLLLHKKEDGIWSTDILKDQKEPKNKTFLRCEAKNYSGRFTCWWLTTISTDLTFSVKSSRGSSDPQGVTCGAATLSAERVRGDNKEYEYSVECQEDSACPAAEESLPIEVMVDAVHKLKYENYTSSFFIRDIIKPDPPKNLQLKPLKNSRQVEVSWEYPDTWSTPHSYFSLTFCVQVQGKSKREKKDRVFTDKTSATVICRKNASISVRAQDRYYSSSWSEWASVPCS
modifications: several mass peaks differing by 162 Da, most likely N-linked glycosylation
notes: IL23p19, the alpha subunit of IL-23, disulfide-linked to IL12p40; IL12p40, the beta subunit of IL-23, disulfide-linked to IL23p19; also called interleukin-23; unlabeled IL-23; source: HEK293-F, co-transduced with BacMam viruses (p19-His and p40), purified from the supernatant (Ni-Sepharose); gift of GlaxoSmithKline
B2: TAMRA-conjugated IL-23 (ligand)
chain 1: RAVPGGSSPAWTQCQQLSQKLCTLAWSAHPLVGHMDLREEGDEETTNDVPHIQCGDGCDPQGLRDNSQFCLQRIHQGLIFYEKLLGSDIFTGEPSLLPDSPVGQLHASLLGLSQLLQPEGHHWETQQIPSLSPSQPWQRLLLRFKILRSLQAFVAVAARVFAHGAATLSP
chain 2: IWELKKDVYVVELDWYPDAPGEMVVLTCDTPEEDGITWTLDQSSEVLGSGKTLTIQVKEFGDAGQYTCHKGGEVLSHSLLLLHKKEDGIWSTDILKDQKEPKNKTFLRCEAKNYSGRFTCWWLTTISTDLTFSVKSSRGSSDPQGVTCGAATLSAERVRGDNKEYEYSVECQEDSACPAAEESLPIEVMVDAVHKLKYENYTSSFFIRDIIKPDPPKNLQLKPLKNSRQVEVSWEYPDTWSTPHSYFSLTFCVQVQGKSKREKKDRVFTDKTSATVICRKNASISVRAQDRYYSSSWSEWASVPCS
modifications: TAMRA (5(6)-carboxytetramethylrhodamine, coupled as NHS ester); 64.9% of TAMRA labels were located on IL23p19; sites not stated | TAMRA (labelled to a lesser extent than IL23p19; sites not stated); several mass peaks differing by 162 Da, most likely N-linked glycosylation
notes: IL23p19, the alpha subunit of IL-23, disulfide-linked to IL12p40; IL12p40, the beta subunit of IL-23, disulfide-linked to IL23p19; A mixture: by LC-MS 52.3% unlabeled, 29.5% single and 18.2% double labeled; by FCS/PCH 39.6% mono-labeled, 11.9% multi-labeled, 48.5% unlabeled; also called IL23-TMR; TAMRA-tagged IL-23; source: HEK293-F, co-transduced with BacMam viruses (p19-His and p40), purified …

Experiments:
[1] = molecular target: NL-IL12Rβ1 co-expressed with HaloTag-IL23R (UniProt P42701 24-662; Q5VWK5 24-629, HaloTag NanoBRET 618 ligand bound to the HaloTag); assay: cell-based or functional assay
[2] = molecular target: wild-type IL23R heteromer (IL23R and IL12Rβ1) (UniProt Q5VWK5-1 24-629; P42701-1 24-662); assay: cell-based or functional assay
[3] = molecular target: T1, NL-IL23R co-expressed with untagged IL12Rβ1 (heteromeric IL-23 receptor complex) (UniProt Q5VWK5 24-629; P42701-1 24-662); assay: cell-based or functional assay
[4] = molecular target: T2, NL-IL23R co-expressed with HaloTag fused IL12Rβ1 (UniProt Q5VWK5 24-629; P42701 24-662); assay: cell-based or functional assay
[5] = molecular target: T3, NL-IL23R co-expressed with SNAP-tag fused IL12Rβ1 (UniProt Q5VWK5 24-629; P42701 24-662); assay: cell-based or functional assay
[6] = molecular target: T1, NL-IL23R co-expressed with untagged …; assay: FRET or BRET; NanoBRET competition on living HEK293T cells co-transfected with NL-IL23R and IL12Rβ1: titration of unlabelled IL-23 against several concentrations of IL23-TMR; HBSS with 1 mg/ml BSA, 1 h; Ki by Cheng-Prusoff or by linear regression of IC50 against IL23-TMR concentration; settings: one partner purified
[7] = molecular target: T4, NL-IL12Rβ1 co-expressed with unlabeled IL23R (UniProt P42701 24-662; Q5VWK5-1 24-629); assay: FRET or BRET; NanoBRET saturation binding of IL23-TMR to living HEK293T cells transfected with NL-IL12Rβ1 and IL23R at a 1:10 ratio (2.2 μg total DNA per well); HBSS with 1 mg/ml BSA, 1 h; non-specific binding with 100 nM unlabelled IL-23; settings: one partner purified
T4 construct: IL-12 receptor subunit β1 (IL12Rβ1), full-length, synthesised without its endogenous signal peptide; Gly-Ser-Arg linker between NanoLuciferase and its N terminus; IL-23 receptor (IL23R) from the Origene IL23R-MYCDDK expression plasmid; called unlabeled or untagged in the results; also called NL-IL12Rβ1:IL23R complex; NL-IL12Rβ1 + IL23R; source: HEK293T, transiently co-transfected (1:1 or 1:10 …)

[8] = molecular target: T5, NanoLuciferase-tagged full-length IL23R (UniProt Q5VWK5 24-629); assay: FRET or BRET; NanoBRET saturation binding of IL23-TMR to living HEK293T cells transiently expressing the NL-fused receptor (alone or 1:1 with the partner receptor plasmid); HBSS with 1 mg/ml BSA, 1 h, 37.5°C; non-specific binding with an excess of unlabelled IL-23 (50 nM to 1 μM); settings: one partner purified
T5 construct: IL-23 receptor (IL23R), full-length, synthesised without its endogenous signal peptide; Gly-Ser-Arg linker between NanoLuciferase and its N terminus; Open reading frame: N-terminal IL-6 secretion signal, NanoLuciferase, Gly-Ser-Arg, IL23R; in a pNLF vector; also called NL-IL23R; IL6SS-NL-IL23R; source: HEK293T, transiently transfected, on living cells; not shown: NanoLuciferase, N-terminal, kept
T5 sequence (looked up): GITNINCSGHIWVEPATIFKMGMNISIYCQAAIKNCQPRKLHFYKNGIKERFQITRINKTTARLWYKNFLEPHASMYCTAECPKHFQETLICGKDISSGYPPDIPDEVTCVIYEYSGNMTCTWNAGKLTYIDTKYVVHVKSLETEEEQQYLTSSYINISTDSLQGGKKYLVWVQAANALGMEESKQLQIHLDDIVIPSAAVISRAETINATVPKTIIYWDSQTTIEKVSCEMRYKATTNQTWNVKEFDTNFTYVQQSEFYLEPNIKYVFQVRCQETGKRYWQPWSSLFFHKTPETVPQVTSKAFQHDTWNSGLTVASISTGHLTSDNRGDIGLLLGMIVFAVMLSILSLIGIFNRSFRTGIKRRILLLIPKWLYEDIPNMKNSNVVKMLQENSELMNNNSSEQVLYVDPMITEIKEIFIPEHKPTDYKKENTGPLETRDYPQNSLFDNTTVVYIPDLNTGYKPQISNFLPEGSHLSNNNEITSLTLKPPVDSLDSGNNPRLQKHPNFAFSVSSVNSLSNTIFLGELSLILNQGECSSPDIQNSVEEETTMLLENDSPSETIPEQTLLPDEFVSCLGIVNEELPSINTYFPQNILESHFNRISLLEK

[9] = molecular target: T6, NanoLuciferase-tagged full-length IL12Rβ1 (UniProt P42701 24-662); assay: as above; settings: one partner purified
T6 construct: IL-12 receptor subunit β1 (IL12Rβ1), full-length, synthesised without its endogenous signal peptide; Gly-Ser-Arg linker between NanoLuciferase and its N terminus; Open reading frame: N-terminal IL-6 secretion signal, NanoLuciferase, Gly-Ser-Arg, IL12Rβ1; in a pNLF vector; also called NL-IL12Rβ1; IL6SS-NL-IL12Rβ1; source: HEK293T, transiently transfected, on living cells; not shown: …

[10] = molecular target: T1, NL-IL23R co-expressed with untagged …; assay: as above; settings: one partner purified
[11] = molecular target: T4, NL-IL12Rβ1 co-expressed with unlabeled …; assay: as above; settings: one partner purified
[12] = molecular target: T2, NL-IL23R co-expressed with HaloTag …; assay: as above; settings: one partner purified
[13] = molecular target: T3, NL-IL23R co-expressed with SNAP-tag …; assay: as above; settings: one partner purified

Row | Binder | EC50 of IL-23 for the increase in intra-receptor BRET between NL-IL12Rβ1 and HaloTag-IL23R [1] | EC50 of IL-23 for STAT3 phosphorylation (Tyr705, AlphaLISA SureFire Ultra), HEK293T cells, 30 min [2] | potency (EC50) of IL-23 for STAT3 phosphorylation (Tyr705, AlphaLISA SureFire Ultra), HEK293T cells, 30 min [3] | EC50 of IL-23 for the decrease in intra-receptor BRET between NL-IL23R and HaloTag-IL12Rβ1 (HT618) [4] | potency (EC50) of IL-23 for STAT3 phosphorylation (Tyr705, AlphaLISA SureFire Ultra), HEK293T cells, 30 min [4] | EC50 of IL-23 for the increase in intra-receptor BRET between NL-IL23R and SNAP-IL12Rβ1 (AF488) [5] | potency (EC50) of IL-23 for STAT3 phosphorylation (Tyr705, AlphaLISA SureFire Ultra), HEK293T cells, 30 min [5] | Ki [6] | Kd [7] | Kd [8] | Kd [9] | Kd [10] | KD of the high-affinity site (two-site fit) [11] | KD of the low-affinity site (two-site fit) [11] | Kd [11] | Kd [12] | Kd [13] | Kd [6]
1 | B1 | 0.457 nM | 0.269 nM | 0.154 nM | 0.0436 nM | 0.199 nM | 0.0429 nM | 0.15 nM | 0.0316 nM and 0.0272 nM |  |  |  |  |  |  |  |  |  | 
2 | B2 |  |  |  |  |  |  |  |  | 0.647 nM | 222 nM | 30.1 nM | 0.027 nM | 0.028 nM | 72 nM | 46.7 nM | 0.179 ± 0.008 nM | 0.454 ± 0.043 nM | 0.0351 nM

Reference: paper PMC8790524, “Probing the binding of interleukin-23 to individual receptor components and the IL-23 heteromeric receptor complex in living cells using NanoBRET” (Cell Chemical Biology, 2022)
